Assays:
[1] = In vivo biodistribution: plasma, kidney, liver, heart (ICP-MS); design: species or system SCID mice; settings: for Gd content in the kidneys / plasma Gd level over time: tumor-bearing SCID mice, ICP-MS; for Gd content in the kidneys: mean ± SD, 6 animals per group; for plasma Gd level over time: 0.25-48 h
Protocol: (§1) The 6- to 8-week-old male non-obese diabetic (NOD)/severe-combined immunodeficient (SCID) mice were used to establish MDA-MB-231 (EGFR-overexpressing) and U138 MG (non-EGFR-overexpressing) xenograft models ([35]). The mice were obtained from the Experimental Animal Center of Tongji Medical College, Huazhong University of Science and Technology, and all the experimental procedures involving animals were further approved by the Animal Care and Use Committee of Huazhong University of Science and Technology. The mice were housed separately in polycarbonate cages and provided with food and water. Tumors were grown under the skin by s.c. injection of 1 × 10^6-3 × 10^6 cells. The mice were randomized into groups for the biodistribution assay and MR imaging in vivo when the xenografts reached 5 to 7 mm in diameter. All procedures were approved by the Institutional Animal Care and Use Committee of Huazhong University of Science and Technology (approval no.270193).
(§2) The tumor-bearing SCID mice were randomly divided into groups, with 6 animals in each group, an injected via the tail vein with 50 μM Gd/kg EBP-Gd-DO3A, EBP-(Gd-DO3A)3, or Gadovist. At the selected time points (0.25, 0.5, 1, 2, 4, 8, 24, and 48 h) after injection, blood was collected and centrifuged to separate the plasma. Then, organ and tissue samples, including the kidneys, liver, heart, and tumor, were collected and weighed. The tissue samples were liquefied for 1 week and then transferred into centrifuge tubes and centrifuged at 14,000 rpm for 5 min. The resulting supernatants were diluted tenfold with deionized water and centrifuged again under the same conditions. The Gd concentration in the samples was measured by ICP-MS ([36]).

[2] = tested on: MDA-MB-231 tumor xenografts; experiment: In vivo biodistribution: tumor Gd content (ICP-MS); settings: SCID mice, mean ± SD; for Gd content in the MDA-MB-231 tumor tissues (peak): 4 h after single i.v. 50 μM Gd/kg
Protocol: as §1, §2

[3] = Longitudinal and transverse relaxivity at 3T MRI; format: physicochemical; settings: in water, 37 °C, slope of 1/T1 versus Gd concentration (0-0.5 mM)
Protocol: The EBP-Gd-DO3A and EBP-(Gd-DO3A)3 conjugates were confirmed by matrix-assisted laser desorption/ionization time-of-flight (MALDI-TOF) mass spectrometry (Applied Biosystems) in a linear mode with 2,5-dihydroxybenzoic acid (2,5-DHB) as the matrix. The Gd content in the conjugates was determined by ICP-MS (Thermo Fisher Scientific) ([31]). […] Serial dilutions of EBP-Gd-DO3A, EBP-(Gd-DO3A)3, and Gadovist were prepared in water at Gd concentrations of 0.5, 0.25, 0.125, 0.0625, 0.03125, and 0 mM. The relaxivity measurements were performed on a 3T MRI scanner (Trio, Siemens). T1 was measured using an inversion recovery method with a variable inversion time ranging from 50 to 1750 ms. T2 was measured using a Carr-Purcell-Meiboom-Gill sequence with 500 echoes collected. The relaxivities (r1 and r2) of the agents were calculated from the slopes of the plots of 1/T1 and 1/T2 versus the Gd concentrations.

[4] = tested on: MDA-MB-231 and U138 MG tumor xenografts; experiment: In vivo MR imaging of tumor xenografts; design: species or system SCID mice; settings: i.v. 50 μM Gd/kg, 7 T T1-weighted MRI, n = 6; conjugates in MDA-MB-231 xenografts; imaged up to 4 h
Protocol: as §1, with “All procedures were approved by the Institutional Animal Care and Use Committee of Huazhong University of Science and Technology (approval no.270193).” left out
Tumor-bearing SCID mice were randomly grouped and scanned with a Bruker Biospec 7 T MRI scanner (Bruker Corp.) with a volume radio frequency (RF) coil. […] The parameters of the 2D T1-weighted gradient echo sequence were TR/TE = 151.2/1.9 ms, FOV = 3.0 cm, slice thickness = 1.2 mm, slice number = 20, average = 1, flip angle = 80°, and matrix = 128 × 128 ([28], [37]).The CNR were calculated with standard methods (CNR = [Stumor-Sbackground]/SDnoise).

U138 MG tumor xenografts = experiment: In vivo biodistribution: tumor Gd content (ICP-MS); settings: SCID mice, mean ± SD
Protocol: as §1, §2

[5] = 2 h after single i.v. 50 μM Gd/kg
[6] = 24 h after single i.v. 50 μM Gd/kg
[7] = 0.5 h after single i.v. 50 μM Gd/kg

Which results are given for CMYIEALDKYAC [EBP-(Gd-DO3A)3]?
Gd content in the kidneys [1, 5]: 12.40 ± 1.60 nM/g tissue; Gd content in the kidneys ([1]; 8 h after single i.v. 50 μM Gd/kg): 8.12 ± 1.28 nM/g tissue; Gd content in the kidneys [1, 6]: 3.50 ± 1.40 nM/g tissue; plasma Gd level over time ([1]; single i.v. 50 μM Gd/kg): maintained at a high level for a much longer time; Gd content in the MDA-MB-231 tumor tissues (peak) [2]: 30.70 ± 1.90 nM/g tissue; Gd content in the MDA-MB-231 tumor tissues [2, 6]: 19.42 ± 1.76 nM/g tissue; longitudinal relaxivity (r1) [3]: 7.24 mM⁻¹ s⁻¹

For O=C([O-])CN1CCN(CC(=O)[O-])CCN([C@H](CO)[C@H](O)CO)CCN(CC(=O)[O-])CC1.[Gd+3] (racemic) [Gadovist, reference compound], which “time that tumor contrast enhancement persisted after injection” value [4] is on record?
Its value is 2 h.

And the “Gd content in the kidneys” value [1, 7]?
Its value is 10.70 ± 2.10 nM/g tissue.

What about the “Gd content in the kidneys” value [1, 5] of the same compound?
The value was 8.73 ± 1.37 nM/g tissue.

What about the “Gd content in the kidneys” value [1, 6] of the same compound?
The value was 1.58 ± 0.72 nM/g tissue.

And the “Gd retention in the liver and heart” value ([1]; single i.v. 50 μM Gd/kg, compared with EBP-Gd-DO3A and EBP-(Gd-DO3A)3, ICP-MS)?
The value was “relatively high at all time points”.

What about the “plasma Gd level over time” value ([1]; single i.v. 50 μM Gd/kg) of the same compound?
The value was “rapidly disappeared from circulation”.

What about the “Gd content in the MDA-MB-231 tumor tissues” value [2, 7] of the same compound?
The value was 3.36 ± 0.91 nM/g tissue.

What about the “Gd content in the MDA-MB-231 tumor tissues” value [2, 5] of the same compound?
Its value is 1.26 ± 0.46 nM/g tissue.

What about the “Gd content in the MDA-MB-231 tumor tissues” value [2, 6] of the same compound?
The value was “no detectable Gd”.

And the “Gd content in the U138 MG tumors” value (U138 MG tumor xenografts; [7])?
The value was 8.70 ± 1.24 nM/g tissue.

And the “Gd content in the U138 MG tumors” value (U138 MG tumor xenografts; [5])?
Its value is 5.76 ± 0.45 nM/g tissue.

What about the “Gd content in the U138 MG tumors” value (U138 MG tumor xenografts; [6]) of the same compound?
The value was 0.90 ± 0.23 nM/g tissue.

And the “longitudinal relaxivity (r1)” value [3]?
Its value is 3.14 mM⁻¹ s⁻¹.

Which “Gd content in the kidneys” value [1, 5] does the source give for CMYIEALDKYAC [EBP-Gd-DO3A] here?
The value was 10.76 ± 1.14 nM/g tissue.

And the “Gd content in the kidneys” value ([1]; 4 h after single i.v. 50 μM Gd/kg)?
The value was 8.25 ± 0.75 nM/g tissue.

And the “Gd content in the kidneys” value [1, 6]?
The value was 2.52 ± 0.68 nM/g tissue.

And the “plasma Gd level over time” value ([1]; single i.v. 50 μM Gd/kg)?
Its value is “maintained at a high level for a much longer time”.

What about the “Gd content in the MDA-MB-231 tumor tissues (peak)” value [2] of the same compound?
Its value is 17.70 ± 2.10 nM/g tissue.

What about the “Gd content in the MDA-MB-231 tumor tissues” value [2, 6] of the same compound?
Its value is 9.95 ± 1.85 nM/g tissue.

And the “longitudinal relaxivity (r1)” value [3]?
The value was 5.08 mM⁻¹ s⁻¹.
